According to patent US20240018513A1, “SYNTHETIC INTRONS FOR TARGETED GENE EXPRESSION” (FRED HUTCHINSON CANCER CENTER, priority 2020, published 2024):

How the values were obtained:
T47D cells = test: T47D subcutaneous xenografts, doxycycline-inducible SF3B1 WT or K700E, GCV or PBS; type: in vivo, NSG mice; conditions: GCV vs PBS
[1] = tested on: WT or SF3B1-mutant K562 cells; test: K562 xenografts (intravenous), GCV or PBS, bioluminescence and survival; type: in vivo, NOD-scid IL2Rgnull (NSG) mice
From the text: FIGS. 4A-4I: Synthetic introns enable mutation-dependent cancer cell targeting in vivo. (4A) Schematic of xenograft experiments with K562 cells expressing Luciferase and HSV-TK interrupted by synMTERFD3i1-150. K562 cells were intravenously injected into sub-lethally irradiated (250 cGy) NOD-scid IL2rgnull (NSG) mice (2M cells/mouse). n=10 (WT) and 9 (SF3B1-mutant) mice per cohort. (4B) Quantification of tumor burden, estimated by whole-body bioluminescent signal. Each point represents a single mouse. (4C) Representative bioluminescence images from cohorts described in (4A). (4D) Survival of mice from cohort described in (4A). p computed with logrank test. Comparisons not illustrated on plot are not significant (p+/+ GCV vs. PBS=0.534; pK700E/+PBS vs.+/+PBS=0.823). The cause of death for the one GCV-treated animal engrafted with an SF3B1-mutant leukemia which died by experiment endpoint was unclear, as this animal had minimal leukemic burden by imaging or necropsy. (4E) Survival curves of NSG mice engrafted with SF3B1 WT (top) or SF3B1 K700E (bottom) MOLM-13 cells expressing Luciferase and HSV-TK interrupted by synMTERFD3i1-150 followed by treatment with either PBS or GCV. pK700E/+ PBS vs. pK700E/+GCV=0.011. n=10 mice/group. (4F) Representative bioluminescence images from cohorts described in (4E). (4G) Tumor volumes of mice engrafted with SF3B1 WT or SF3B1 K700E T47D cells expressing HSV-TK interrupted by synMTERFD3i1-150 followed by treatment with either PBS or GCV. T47D cells were engrafted subcutaneously. Data represented as mean±s.d. n=8 mice/group. (4H) Tumor volumes of mice engrafted with SF3B1 WT MEL285 cells (left) or SF3B1 R625G MEL202 cells (right) expressing HSV-TK interrupted by synthetic intron 6700 (synMTERFD3i1-150 with A>C at −7 nt; A>C at −19 nt) followed by treatment with either PBS or GCV. All cells were engrafted subcutaneously. Data represented as mean±s.d. n=10 mice/group. (4I) Representative gross images of the tumors from (4H) at day 27 post-implantation.
Having identified the key features governing mutation responsiveness, the next step was to test whether synthetic introns permitted mutation-dependent cancer cell killing in vivo. A focus was made on synMTERFD3i1-150 for these experiments, as it served as the parent synthetic intron from which most of the full library was derived. Luciferase-GFP constructs were introduced into WT or SF3B1-mutant K562 cells expressing HSV-TK interrupted by synMTERFD3i1-150, tail vein injections of these cells were performed into NOD-scid IL2Rgnull (NSG) mice. The mice were treated with PBS or GCV and monitored for leukemia burdens with live imaging (FIG. 4A). […]

MOLM-13 cells = test: MOLM-13 xenografts (intravenous), doxycycline-inducible SF3B1 WT or K700E, GCV or PBS; type: in vivo, NSG mice; conditions: GCV-treated arm engrafted with SF3B1K700E-expressing MOLM-13 cells
From the text: FIGS. 4A-4I: Synthetic introns enable mutation-dependent cancer cell targeting in vivo. (4A) Schematic of xenograft experiments with K562 cells expressing Luciferase and HSV-TK interrupted by synMTERFD3i1-150. K562 cells were intravenously injected into sub-lethally irradiated (250 cGy) NOD-scid IL2rgnull (NSG) mice (2M cells/mouse). n=10 (WT) and 9 (SF3B1-mutant) mice per cohort. (4B) Quantification of tumor burden, estimated by whole-body bioluminescent signal. Each point represents a single mouse. (4C) Representative bioluminescence images from cohorts described in (4A). (4D) Survival of mice from cohort described in (4A). p computed with logrank test. Comparisons not illustrated on plot are not significant (p+/+ GCV vs. PBS=0.534; pK700E/+PBS vs.+/+PBS=0.823). The cause of death for the one GCV-treated animal engrafted with an SF3B1-mutant leukemia which died by experiment endpoint was unclear, as this animal had minimal leukemic burden by imaging or necropsy. (4E) Survival curves of NSG mice engrafted with SF3B1 WT (top) or SF3B1 K700E (bottom) MOLM-13 cells expressing Luciferase and HSV-TK interrupted by synMTERFD3i1-150 followed by treatment with either PBS or GCV. pK700E/+ PBS vs. pK700E/+GCV=0.011. n=10 mice/group. […]
Next, the potential efficacy of using synthetic introns was tested in other cancer models. […] Leukemia burden and survival were monitored. […]

B1: intron_26: 150 nt MTERFD3 intron 1-derived synthetic intron, deletion 25to125; SEQ ID NO 58/66 (nucleic acid)
DNA 1: GTGAGTCGCCCCCTTCCTCTGCTCCGAGAGGGAAATGGGAATTAGGGTGGTGGCAGAGCCCAAAGAGGCCTTGTAGGCCATGGTAAGGCATTTCTATGTTTTATTTTACTTTGTCTTTATCCTAAAATGCCATTGGCAAGTTTATTGCAG
DNA 2: B1 DNA 1
- tumor burden (tumor volume) (T47D cells): specifically reduced tumor burden in the GCV-treated arm engrafted with SF3B1K700E-expressing cells
- survival, p (logrank test) ([1]; +/+ (WT) GCV vs. PBS): 0.534
- leukemic burden (whole-body bioluminescent signal) ([1]; GCV 80 mg/kg IP three times per week vs PBS): immediate and sustained suppression of SF3B1-mutant leukemic burden, with no effects on WT leukemias
- survival ([1]; GCV- vs PBS-treated SF3B1-mutant leukemias): significantly increased survival
- survival, p (logrank test) ([1]; GCV- vs. PBS-treated SF3B1-mutant leukemias): 1.7e-4
- survival and tumor burden (MOLM-13 cells): significantly prolonged survival and reduced tumor burden
